Experimental findings from the supplement of paper PMC10567573 are described below.

First the molecules themselves.
B1: ZBTB22 (parent)
chain: RPFDCPVCNKKFKMKHHLTEHMKT
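Also: lentivirally expressed fusions sorted by FACS into six bins by GFP to DsRed ratio, PSI derived from sequencing read proportions per bin multiplied by bin number.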

The variants in the data set derive from B1. The data set is described as follows: protein stability index of a GFP-peptide fusion (GPS, HEK-293T) (PSI 1-6); higher = more stable. The note with it: c terminus: a fixed tail appended.
Turning to RPFDCPVCNIKFKMKHHLTEHMKT [K10I], the protein stability index was found to be 2.03. On to RPFDCPVCNHKFKMKHHLTEHMKT [K10H], for which the protein stability index came to 2.47. The figure for RPFDCPVCNQKFKMKHHLTEHMKT [K10Q] is 2.21; for RPFDCPVCNFKFKMKHHLTEHMKT [K10F] it is 2.34. The figure for RPFDCPVCNTKFKMKHHLTEHMKT [K10T] is 2.96; for RPFDCPVCNDKFKMKHHLTEHMKT [K10D] it is 2.43; for RPFDCPVCNLKFKMKHHLTEHMKT [K10L] it is 2.19. The figure for RPFDCPVCNYKFKMKHHLTEHMKT [K10Y] is 2.29; for RPFDCPVCNPKFKMKHHLTEHMKT [K10P] it is 2.31. As to RPFDCPVCNEKFKMKHHLTEHMKT [K10E], the protein stability index stood at 3.01. The figure for RPFDCPVCNGKFKMKHHLTEHMKT [K10G] is 2.25. The figure for RPFDCPVCNCKFKMKHHLTEHMKT [K10C] is 2.49; for RPFDCPVCNVKFKMKHHLTEHMKT [K10V] it is 2.11. The result for RPFDCPVCNMKFKMKHHLTEHMKT [K10M] reads 2.46; that for RPFDCPVCNRKFKMKHHLTEHMKT [K10R], 2.37; that for RPFDCPVCNNKFKMKHHLTEHMKT [K10N], 2.45. On to RPFDCPVCNWKFKMKHHLTEHMKT [K10W], for which the protein stability index turned out to be 1.7. The result for RPFDCPVCNSKFKMKHHLTEHMKT [K10S] reads 2.63; that for RPFDCPVCNAKFKMKHHLTEHMKT [K10A], 2.52; that for RPFDCPACNKKFKMKHHLTEHMKT [V7A], 2.21. The figure for RPFDCPHCNKKFKMKHHLTEHMKT [V7H] is 3.27; for RPFDCPWCNKKFKMKHHLTEHMKT [V7W] it is 2.85. The figure for RPFDCPMCNKKFKMKHHLTEHMKT [V7M] is 2.25; for RPFDCPGCNKKFKMKHHLTEHMKT [V7G] it is 3.06. In the case of RPFDCPCCNKKFKMKHHLTEHMKT [V7C], the protein stability index turned out to be 3.91. The figure for RPFDCPYCNKKFKMKHHLTEHMKT [V7Y] is 3.

As to RPFDCPPCNKKFKMKHHLTEHMKT [V7P], the protein stability index worked out at 2.7.

In the case of RPFDCPNCNKKFKMKHHLTEHMKT [V7N], the protein stability index was 2.48.

RPFDCPFCNKKFKMKHHLTEHMKT [V7F]: the protein stability index was 3.21. The result for RPFDCPLCNKKFKMKHHLTEHMKT [V7L] reads 2.53; that for RPFDCPDCNKKFKMKHHLTEHMKT [V7D], 2.82; that for RPFDCPICNKKFKMKHHLTEHMKT [V7I], 3.09.

RPFDCPSCNKKFKMKHHLTEHMKT [V7S]: the protein stability index stood at 2.77. The figure for RPFDCPTCNKKFKMKHHLTEHMKT [V7T] is 2.47; for RPFDCPKCNKKFKMKHHLTEHMKT [V7K] it is 2.96. Turning to RPFDCPECNKKFKMKHHLTEHMKT [V7E], the protein stability index turned out to be 3.58. The result for RPFDCPQCNKKFKMKHHLTEHMKT [V7Q] reads 2.45; that for RPFDCPRCNKKFKMKHHLTEHMKT [V7R], 2.39; that for RPFDCPVCNKKCKMKHHLTEHMKT [F12C], 4.09.

Take RPFDCPVCNKKDKMKHHLTEHMKT [F12D]: the protein stability index came out at 2.22. The figure for RPFDCPVCNKKIKMKHHLTEHMKT [F12I] is 2.49; for RPFDCPVCNKKTKMKHHLTEHMKT [F12T] it is 2.64; for RPFDCPVCNKKQKMKHHLTEHMKT [F12Q] it is 2.6. The result for RPFDCPVCNKKSKMKHHLTEHMKT [F12S] reads 2.53; that for RPFDCPVCNKKHKMKHHLTEHMKT [F12H], 2.6; that for RPFDCPVCNKKWKMKHHLTEHMKT [F12W], 2.02. The figure for RPFDCPVCNKKKKMKHHLTEHMKT [F12K] is 2.1; for RPFDCPVCNKKLKMKHHLTEHMKT [F12L] it is 2.38.

RPFDCPVCNKKPKMKHHLTEHMKT [F12P]: the protein stability index stood at 2.5. For RPFDCPVCNKKAKMKHHLTEHMKT [F12A], the protein stability index turned out to be 2.44. The result for RPFDCPVCNKKVKMKHHLTEHMKT [F12V] reads 2.04; that for RPFDCPVCNKKNKMKHHLTEHMKT [F12N], 1.96. The result for RPFDCPVCNKKYKMKHHLTEHMKT [F12Y] reads 2.4.

With RPFDCPVCNKKGKMKHHLTEHMKT [F12G], the protein stability index came out at 2.65. The figure for RPFDCPVCNKKMKMKHHLTEHMKT [F12M] is 2.78. The result for RPFDCPVCNKKEKMKHHLTEHMKT [F12E] reads 3.22; that for RPFDCPVCNKKRKMKHHLTEHMKT [F12R], 1.83. The result for RPFDCPVCNKLFKMKHHLTEHMKT [K11L] reads 2.25; that for RPFDCPVCNKPFKMKHHLTEHMKT [K11P], 2.34.

Regarding RPFDCPVCNKDFKMKHHLTEHMKT [K11D], the protein stability index was 2.55. On to RPFDCPVCNKNFKMKHHLTEHMKT [K11N], for which the protein stability index is 2.79. Turning to RPFDCPVCNKVFKMKHHLTEHMKT [K11V], the protein stability index was found to be 2.52. The result for RPFDCPVCNKMFKMKHHLTEHMKT [K11M] reads 1.84; that for RPFDCPVCNKCFKMKHHLTEHMKT [K11C], 2.44. The result for RPFDCPVCNKAFKMKHHLTEHMKT [K11A] reads 2.23; that for RPFDCPVCNKWFKMKHHLTEHMKT [K11W], 2.21; that for RPFDCPVCNKRFKMKHHLTEHMKT [K11R], 2.8.

For RPFDCPVCNKSFKMKHHLTEHMKT [K11S], the protein stability index was 3.12. The figure for RPFDCPVCNKHFKMKHHLTEHMKT [K11H] is 2.85; for RPFDCPVCNKGFKMKHHLTEHMKT [K11G] it is 2.43; for RPFDCPVCNKTFKMKHHLTEHMKT [K11T] it is 2.91. The figure for RPFDCPVCNKEFKMKHHLTEHMKT [K11E] is 2.89; for RPFDCPVCNKIFKMKHHLTEHMKT [K11I] it is 2.36.

RPFDCPVCNKFFKMKHHLTEHMKT [K11F]: the protein stability index was determined as 1.8. The result for RPFDCPVCNKYFKMKHHLTEHMKT [K11Y] reads 2.17; that for RPFDCPVCNKQFKMKHHLTEHMKT [K11Q], 2.31; that for RPFDCPVNNKKFKMKHHLTEHMKT [C8N], 2.98. The result for RPFDCPVVNKKFKMKHHLTEHMKT [C8V] reads 3.5.

For the variant RPFDCPVYNKKFKMKHHLTEHMKT [C8Y], the protein stability index came out at 2.9. The figure for RPFDCPVFNKKFKMKHHLTEHMKT [C8F] is 2.26. Regarding RPFDCPVINKKFKMKHHLTEHMKT [C8I], the protein stability index was determined as 2.72. The figure for RPFDCPVANKKFKMKHHLTEHMKT [C8A] is 2.99; for RPFDCPVQNKKFKMKHHLTEHMKT [C8Q] it is 2.81; for RPFDCPVDNKKFKMKHHLTEHMKT [C8D] it is 3.25. The result for RPFDCPVPNKKFKMKHHLTEHMKT [C8P] reads 2.62; that for RPFDCPVENKKFKMKHHLTEHMKT [C8E], 2.97. The figure for RPFDCPVSNKKFKMKHHLTEHMKT [C8S] is 3.03. Regarding RPFDCPVMNKKFKMKHHLTEHMKT [C8M], the protein stability index stood at 2.93.

Turning to RPFDCPVRNKKFKMKHHLTEHMKT [C8R], the protein stability index came to 3.08.

On to RPFDCPVHNKKFKMKHHLTEHMKT [C8H], for which the protein stability index stood at 3. The figure for RPFDCPVGNKKFKMKHHLTEHMKT [C8G] is 2.8. The result for RPFDCPVTNKKFKMKHHLTEHMKT [C8T] reads 3.48. The figure for RPFDCPVKNKKFKMKHHLTEHMKT [C8K] is 3.34; for RPFDCPVLNKKFKMKHHLTEHMKT [C8L] it is 2.92.
